# Source: patent US20190227063A1
# Assays:
# [1] = target: HLA-A*02:01 in complex with PRAME300-309 peptide …, on T2 cells expressing the PresentER ALY minigene (human); experiment: flow cytometry histograms, T2 cells expressing PresentER minigenes
# [2] = target: HLA-A*02:01 in complex with WT1 aa126-134 peptide …, on T2 cells expressing the PresentER RMF minigene (human); experiment: >
Substance,fluorescence units (FU) [1] [FU],fluorescence units (FU) [2]
Pr20 TCR mimic (TCRm) monoclonal antibody,> 1100,
ESK1 TCR mimic (TCRm) monoclonal antibody,< 1000,1000 >
